Values of other authors as cited in publication PMC9346034.

Assays:
DnaK (Escherichia coli) = DnaK (Escherichia coli) (UniProt P0A6Y8)
Hsp70 (Homo sapiens) = Hsp70 (Homo sapiens) (UniProt P0DMV8)
Hsp70 (Homo sapiens), sequence (P0DMV8 2-641): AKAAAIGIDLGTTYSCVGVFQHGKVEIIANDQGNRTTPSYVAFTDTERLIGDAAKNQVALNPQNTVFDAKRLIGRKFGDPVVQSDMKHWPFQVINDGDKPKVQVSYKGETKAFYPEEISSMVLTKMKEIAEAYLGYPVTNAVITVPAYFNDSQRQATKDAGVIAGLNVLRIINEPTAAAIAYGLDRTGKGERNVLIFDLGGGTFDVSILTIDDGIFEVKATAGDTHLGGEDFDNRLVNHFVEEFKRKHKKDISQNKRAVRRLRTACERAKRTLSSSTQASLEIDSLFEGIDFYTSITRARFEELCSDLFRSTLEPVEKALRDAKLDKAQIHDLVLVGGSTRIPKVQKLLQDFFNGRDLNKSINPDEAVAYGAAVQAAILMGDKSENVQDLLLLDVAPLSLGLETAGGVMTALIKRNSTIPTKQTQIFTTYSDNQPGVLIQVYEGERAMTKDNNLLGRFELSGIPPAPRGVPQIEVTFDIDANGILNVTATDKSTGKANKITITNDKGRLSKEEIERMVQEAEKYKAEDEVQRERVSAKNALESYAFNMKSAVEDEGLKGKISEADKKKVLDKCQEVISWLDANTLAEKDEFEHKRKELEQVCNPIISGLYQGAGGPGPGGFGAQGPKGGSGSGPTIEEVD

DnaK (Escherichia coli), sequence (P0A6Y8 2-638): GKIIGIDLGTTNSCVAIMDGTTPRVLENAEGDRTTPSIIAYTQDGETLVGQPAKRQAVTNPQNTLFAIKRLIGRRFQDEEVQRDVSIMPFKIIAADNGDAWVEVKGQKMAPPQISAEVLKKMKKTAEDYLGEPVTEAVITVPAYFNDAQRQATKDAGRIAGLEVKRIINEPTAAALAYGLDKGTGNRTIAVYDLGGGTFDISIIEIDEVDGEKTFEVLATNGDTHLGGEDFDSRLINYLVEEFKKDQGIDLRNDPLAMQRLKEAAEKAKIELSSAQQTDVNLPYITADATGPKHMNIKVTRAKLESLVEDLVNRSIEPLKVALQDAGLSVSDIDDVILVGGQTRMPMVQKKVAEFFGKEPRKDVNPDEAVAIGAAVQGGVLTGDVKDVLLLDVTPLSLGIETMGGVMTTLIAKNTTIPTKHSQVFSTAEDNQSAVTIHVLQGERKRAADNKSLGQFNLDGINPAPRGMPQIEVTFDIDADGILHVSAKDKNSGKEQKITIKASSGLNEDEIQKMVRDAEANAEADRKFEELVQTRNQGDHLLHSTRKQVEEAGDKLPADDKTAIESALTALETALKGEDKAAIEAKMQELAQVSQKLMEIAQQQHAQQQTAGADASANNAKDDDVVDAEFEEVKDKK
Bag3-ΔBag ΔBag, sequence (O95817 2-420, stated change not applied): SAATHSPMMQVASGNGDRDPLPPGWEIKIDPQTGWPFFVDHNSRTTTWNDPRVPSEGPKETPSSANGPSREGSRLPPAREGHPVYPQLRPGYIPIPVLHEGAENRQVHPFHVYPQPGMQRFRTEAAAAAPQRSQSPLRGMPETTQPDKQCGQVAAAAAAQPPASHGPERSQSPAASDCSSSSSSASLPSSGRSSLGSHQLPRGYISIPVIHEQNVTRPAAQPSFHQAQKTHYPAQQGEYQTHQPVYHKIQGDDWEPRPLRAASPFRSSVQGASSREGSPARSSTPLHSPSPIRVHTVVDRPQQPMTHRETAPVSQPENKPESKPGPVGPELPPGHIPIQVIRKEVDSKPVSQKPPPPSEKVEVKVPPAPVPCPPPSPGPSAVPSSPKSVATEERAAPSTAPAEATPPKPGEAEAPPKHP
Bag3-ΔBag ΔBag, sequence (O95817 499-575, stated change not applied): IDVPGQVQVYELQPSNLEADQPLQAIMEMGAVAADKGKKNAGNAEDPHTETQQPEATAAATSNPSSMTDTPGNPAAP
DnaJ, sequence (P08622 2-376): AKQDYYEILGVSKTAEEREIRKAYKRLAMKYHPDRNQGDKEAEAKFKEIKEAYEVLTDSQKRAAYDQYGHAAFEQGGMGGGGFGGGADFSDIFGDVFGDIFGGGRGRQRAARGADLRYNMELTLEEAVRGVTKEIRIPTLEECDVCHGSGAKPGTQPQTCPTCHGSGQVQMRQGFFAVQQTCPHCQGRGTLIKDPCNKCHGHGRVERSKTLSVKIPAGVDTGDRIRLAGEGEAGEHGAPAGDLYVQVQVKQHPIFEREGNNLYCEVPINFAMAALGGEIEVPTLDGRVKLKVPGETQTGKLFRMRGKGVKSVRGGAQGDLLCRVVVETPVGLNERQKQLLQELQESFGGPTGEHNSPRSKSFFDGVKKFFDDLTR

Row | Kd (DnaK (Escherichia coli)) | Kd (Hsp70 (Homo sapiens)) | Substance
1 | 3.6 µM |  | DnaJ (from UniProt P08622)
2 |  | 10 µM | Bag3-ΔBag ΔBag (from UniProt O95817)
